Assay results published in paper PMC3882317 (Cell reports, 2013).

Experiments:
[1] = target: T1, Flag-tagged MePCE (UniProt Q7L2J0 1-689); assay: pull-down
T1 sequence (looked up): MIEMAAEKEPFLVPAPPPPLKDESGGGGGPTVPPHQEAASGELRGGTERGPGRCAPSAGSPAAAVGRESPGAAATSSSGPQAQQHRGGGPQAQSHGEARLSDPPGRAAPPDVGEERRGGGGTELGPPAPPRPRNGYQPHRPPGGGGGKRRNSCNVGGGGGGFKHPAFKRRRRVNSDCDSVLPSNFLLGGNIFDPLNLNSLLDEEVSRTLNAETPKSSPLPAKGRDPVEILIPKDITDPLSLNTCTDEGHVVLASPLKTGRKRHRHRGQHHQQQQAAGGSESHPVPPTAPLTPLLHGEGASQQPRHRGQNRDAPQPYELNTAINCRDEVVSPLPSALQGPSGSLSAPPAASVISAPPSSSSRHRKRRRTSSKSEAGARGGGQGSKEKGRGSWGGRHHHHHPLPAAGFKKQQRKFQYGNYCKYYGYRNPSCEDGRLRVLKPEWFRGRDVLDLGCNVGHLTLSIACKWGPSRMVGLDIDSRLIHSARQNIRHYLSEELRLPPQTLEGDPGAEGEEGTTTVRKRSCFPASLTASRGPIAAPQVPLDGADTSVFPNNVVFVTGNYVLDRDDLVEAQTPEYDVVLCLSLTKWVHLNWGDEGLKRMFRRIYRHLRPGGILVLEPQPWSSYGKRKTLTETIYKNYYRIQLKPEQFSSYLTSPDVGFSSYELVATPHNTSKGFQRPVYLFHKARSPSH

[2] = target: T2, Flag-tagged Larp7 (UniProt Q4G0J3 1-582); assay: pull-down
T2 sequence (looked up): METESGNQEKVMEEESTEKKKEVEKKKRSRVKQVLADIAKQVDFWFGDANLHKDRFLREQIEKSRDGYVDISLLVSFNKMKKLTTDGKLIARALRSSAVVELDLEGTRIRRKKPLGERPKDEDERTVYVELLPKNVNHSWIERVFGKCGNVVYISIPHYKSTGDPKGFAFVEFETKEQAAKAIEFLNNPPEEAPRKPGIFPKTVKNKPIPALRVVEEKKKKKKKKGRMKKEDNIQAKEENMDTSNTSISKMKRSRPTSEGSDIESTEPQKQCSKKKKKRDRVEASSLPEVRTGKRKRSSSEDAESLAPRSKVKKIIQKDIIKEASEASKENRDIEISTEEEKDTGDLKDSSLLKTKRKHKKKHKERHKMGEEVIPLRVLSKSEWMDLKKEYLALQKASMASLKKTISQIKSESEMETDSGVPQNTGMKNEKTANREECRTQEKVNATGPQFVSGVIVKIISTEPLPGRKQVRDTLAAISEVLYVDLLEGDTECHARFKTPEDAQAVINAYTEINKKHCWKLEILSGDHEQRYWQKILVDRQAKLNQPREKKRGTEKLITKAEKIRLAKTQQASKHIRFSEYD

B1: Strep-tagged PPM1G (enzyme, UniProt O15355 1-546, looked up)
chain: MGAYLSQPNTVKCSGDGVGAPRLPLPYGFSAMQGWRVSMEDAHNCIPELDSETAMFSVYDGHGGEEVALYCAKYLPDIIKDQKAYKEGKLQKALEDAFLAIDAKLTTEEVIKELAQIAGRPTEDEDEKEKVADEDDVDNEEAALLHEEATMTIEELLTRYGQNCHKGPPHSKSGGGTGEEPGSQGLNGEAGPEDSTRETPSQENGPTAKAYTGFSSNSERGTEAGQVGEPGIPTGEAGPSCSSASDKLPRVAKSKFFEDSEDESDEAEEEEEDSEECSEEEDGYSSEEAENEEDEDDTEEAEEDDEEEEEEMMVPGMEGKEEPGSDSGTTAVVALIRGKQLIVANAGDSRCVVSEAGKALDMSYDHKPEDEVELARIKNAGGKVTMDGRVNGGLNLSRAIGDHFYKRNKNLPPEEQMISALPDIKVLTLTDDHEFMVIACDGIWNVMSSQEVVDFIQSKISQRDENGELRLLSSIVEELLDQCLAPDTSGDGTGCDNMTCIIICFKPRNTAELQPESGKRKLEEVLSTEGAEENGNSDKKKKAKRD
- binding result [1]: binds
- binding result [2]: binds
